Reference: US20250051414A1

Experiments:
[1] = target: IL-2Rβ/γ Fc heterodimer (UniProt P14784); assay: BLI (Octet RED384), biotinylated monomeric IL-2/Fc on streptavidin sensors, 1:1 kinetic fit
[2] = target: IL2-Ra ectodomain with C-terminal 6xHis tag (UniProt P01589); assay: BLI (Octet RED384), biotinylated monomeric IL-2/Fc on streptavidin sensors, equilibrium binding
Sequence of UniProt P01589 (P01589 other isoform, or with tags, fused parts or gaps limits assumed): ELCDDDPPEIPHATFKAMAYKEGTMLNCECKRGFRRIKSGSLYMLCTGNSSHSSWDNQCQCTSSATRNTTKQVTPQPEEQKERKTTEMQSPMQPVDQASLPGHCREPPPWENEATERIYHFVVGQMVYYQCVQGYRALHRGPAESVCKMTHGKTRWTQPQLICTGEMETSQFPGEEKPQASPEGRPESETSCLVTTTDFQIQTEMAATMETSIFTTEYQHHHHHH

Sequence of UniProt P14784 (P14784 other isoform, or with tags, fused parts or gaps, chain 1 of 2): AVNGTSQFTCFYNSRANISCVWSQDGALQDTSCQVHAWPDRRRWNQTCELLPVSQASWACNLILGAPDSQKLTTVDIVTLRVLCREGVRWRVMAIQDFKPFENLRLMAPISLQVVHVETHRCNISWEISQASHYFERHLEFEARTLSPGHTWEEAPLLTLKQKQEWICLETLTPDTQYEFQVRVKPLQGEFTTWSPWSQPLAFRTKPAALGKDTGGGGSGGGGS
Sequence of UniProt P14784 (P31785 other isoform, or with tags, fused parts or gaps, chain 2 of 2, further chain): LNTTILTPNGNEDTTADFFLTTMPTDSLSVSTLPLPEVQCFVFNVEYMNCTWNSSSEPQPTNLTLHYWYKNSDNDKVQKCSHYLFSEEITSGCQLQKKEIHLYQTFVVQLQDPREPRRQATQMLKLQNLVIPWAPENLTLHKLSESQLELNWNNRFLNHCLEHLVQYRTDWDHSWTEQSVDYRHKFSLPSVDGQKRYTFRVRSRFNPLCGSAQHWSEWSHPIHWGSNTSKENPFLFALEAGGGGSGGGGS

Substance: WT N-term (Fc fusion)
- Kd [1]: 5.3 nM
- Kd [2]: 0.19 nM

Substance: WT C-term (Fc fusion)
- Kd [1]: 3.04 nM
- Kd [2]: 0.54 nM

Substance: F42Q N-Term (Fc fusion)
- Kd [1]: 2.81 nM
- Kd [2]: 9.48 nM

Substance: V91K C-term (Fc fusion)
- Kd [1]: 7.56 nM
- Kd [2]: 0.69 nM

Substance: N88D C-term (Fc fusion)
- Kd [1]: 24 nM
- Kd [2]: 1.01 nM

Substance: H16N N-term (Fc fusion)
- Kd [1]: 22.4 nM
- Kd [2]: 0.43 nM

Substance: R38Q N-term (Fc fusion)
- Kd [1]: 3.99 nM
- Kd [2]: 0.71 nM
